Experimental data taken from US20250340595A1 (published 2025).
Read-outs that look alike come from different tables or passages of the source. Starred links: 1 amine or outer side, 2 acyl side, 3 side chain; linkers in the order of their positions; H or OH if unused. Positions of bridges follow the written chain, without caps; N, C: chain ends. Non-standard residues stand in square brackets, D forms with d. No end group written: not given here. Fluorescein = fluorescein label on the C-terminal Lys side chain; TATA = O=C(CC[*:1])N1CN(C(=O)CC[*:2])CN(C(=O)CC[*:3])C1; TATB = O=C(C[*:1])N1CN(C(=O)C[*:2])CN(C(=O)C[*:3])C1; Tle = CC(C)(C)[C@H](N)C(=O)O; Sar = CNCC(=O)O

How the values were obtained:
[1] = target: T1, Recombinant cynomolgus TfR1, His6-tagged (a.a. 89-760) (cynomolgus, UniProt H9EXL1 89-760 (rhesus entry)); test: FP direct binding
T1 construct: range 89-760; same product number named for FP and SPR; also called Cyno TfR1; Acro Biosystems TFR-C524a
T1 sequence (chain, as listed by the source): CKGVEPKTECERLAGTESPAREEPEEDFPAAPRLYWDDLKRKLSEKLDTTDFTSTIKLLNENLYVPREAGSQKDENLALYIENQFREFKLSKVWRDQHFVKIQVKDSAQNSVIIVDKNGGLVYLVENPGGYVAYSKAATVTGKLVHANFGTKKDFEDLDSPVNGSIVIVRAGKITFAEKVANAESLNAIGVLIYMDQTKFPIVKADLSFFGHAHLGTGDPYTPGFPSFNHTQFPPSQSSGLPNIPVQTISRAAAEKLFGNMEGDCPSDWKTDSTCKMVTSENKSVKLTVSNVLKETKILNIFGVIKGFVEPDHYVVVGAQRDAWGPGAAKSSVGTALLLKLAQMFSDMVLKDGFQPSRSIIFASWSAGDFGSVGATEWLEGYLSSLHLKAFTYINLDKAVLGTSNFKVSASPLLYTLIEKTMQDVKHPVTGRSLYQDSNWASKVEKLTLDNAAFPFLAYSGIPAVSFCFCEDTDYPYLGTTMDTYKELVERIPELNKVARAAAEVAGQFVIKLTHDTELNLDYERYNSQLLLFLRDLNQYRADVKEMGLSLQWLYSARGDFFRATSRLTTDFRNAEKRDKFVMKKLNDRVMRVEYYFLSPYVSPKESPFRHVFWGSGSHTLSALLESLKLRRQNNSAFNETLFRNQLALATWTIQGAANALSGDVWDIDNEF

[2] = target: T1, Recombinant cynomolgus TfR1, …; test: FP competition table (Table 6)
[3] = target: T1, Recombinant cynomolgus TfR1, …; test: SPR, TfR1 on chip
[4] = target: T2, Recombinant human TfR1, His6-tagged (a.a. 89-760) (human, UniProt P02786 89-760); test: SPR, TfR1 on chip
T2 construct: range 89-760; captured and coupled on an NTA chip for SPR; also called transferrin receptor 1; CD71
T2 sequence (P02786 89-760 limits assumed): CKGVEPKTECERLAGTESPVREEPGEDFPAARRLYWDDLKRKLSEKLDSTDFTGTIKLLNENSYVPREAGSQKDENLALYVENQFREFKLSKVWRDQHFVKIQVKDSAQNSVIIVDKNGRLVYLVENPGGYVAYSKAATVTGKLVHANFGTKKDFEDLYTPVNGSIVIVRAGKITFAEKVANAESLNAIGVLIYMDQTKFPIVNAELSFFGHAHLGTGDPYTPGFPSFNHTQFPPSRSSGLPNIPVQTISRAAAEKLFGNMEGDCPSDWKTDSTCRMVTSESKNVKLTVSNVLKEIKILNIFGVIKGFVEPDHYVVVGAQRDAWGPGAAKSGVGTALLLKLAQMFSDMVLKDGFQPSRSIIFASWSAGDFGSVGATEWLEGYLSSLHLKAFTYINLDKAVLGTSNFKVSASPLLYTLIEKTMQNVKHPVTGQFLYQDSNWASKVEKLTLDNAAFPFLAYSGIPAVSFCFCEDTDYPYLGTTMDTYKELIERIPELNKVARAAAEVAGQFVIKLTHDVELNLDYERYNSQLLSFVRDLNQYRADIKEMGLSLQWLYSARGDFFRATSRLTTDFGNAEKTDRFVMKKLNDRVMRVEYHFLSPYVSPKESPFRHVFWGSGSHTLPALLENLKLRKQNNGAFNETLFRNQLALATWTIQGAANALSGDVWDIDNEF

[5] = target: T2, Recombinant human TfR1, His6-tagged …; test: SPR, TfR1 on chip; remark: listed apart in the source
[6] = target: T1, Recombinant cynomolgus TfR1, …; test: SPR, TfR1 on chip; remark: listed apart in the source
[7] = target: T3, Human TfR1 protein (R&D Systems, 2474-TR or Acro Biosystems, CD1-H5243) (human, UniProt P02786 89-760); test: FP competition, competitor BCY15768
T3 sequence (P02786 89-760 limits assumed): as above

[8] = target: T1, Recombinant cynomolgus TfR1, …; test: FP competition, competitor BCY15768
[9] = target: T3, Human TfR1 protein (R&D Systems, …); test: FP competition, competitor BCY15768; remark: listed apart in the source
[10] = target: T3, Human TfR1 protein (R&D Systems, …); test: Alpha assay, competition with labelled transferrin

Binder | Kd [3] | Kd [4] | Ki [7] | Ki [9] | further results
ACSPDAHLGCISYCAXXXXXXK (3 Cys on TATB; [Sar6]; C-terminal Lys carries fluorescein) [BCY15768] | 3.8 µM |  |  |  | Kd [1]: 0.707 µM; Ki [2]: 1.07 µM
ACSADAHLGCISYCA[Sar][Sar][Sar][Sar][Sar][Sar]K(Fluorescein) (linker 2-10-14 via TATB) [BCY15771] | 4 µM |  |  |  | Ki [2]: 1.06 µM
ACAPDAHLGCISYCA[Sar][Sar][Sar][Sar][Sar][Sar]K(Fluorescein) (linker 2-10-14 via TATB) [BCY15769] | 2.2 µM | 0.07 µM |  |  | Ki [2]: 1.12 µM
ACSPAAHLGCISYCA[Sar][Sar][Sar][Sar][Sar][Sar]K(Fluorescein) (linker 2-10-14 via TATB) [BCY15772] | 99 µM |  |  |  | Ki [2]: 7.08 µM
ACSPDAHLGCIAYCA[Sar][Sar][Sar][Sar][Sar][Sar]K(Fluorescein) (linker 2-10-14 via TATB) [BCY15777] |  |  |  |  | Ki [2]: 2.91 µM
ACSPDAHLGCISACA[Sar][Sar][Sar][Sar][Sar][Sar]K(Fluorescein) (linker 2-10-14 via TATB) [BCY15770] |  |  |  |  | Ki [2]: 4.04 µM
ACSPDAHAGCISYCAXXXXXXK (3 Cys on TATB; [Sar6]; C-terminal Lys carries fluorescein) [BCY15774] | 41 µM |  |  |  | Ki [2]: 3.47 µM
ACSPDAALGCISYCA[Sar][Sar][Sar][Sar][Sar][Sar]K(Fluorescein) (linker 2-10-14 via TATB) [BCY15773] | 2.6 µM |  |  |  | Ki [2]: 2.3 µM
ACSADDWLGCISWCA (3 Cys on TATB) [BCY13983] |  |  |  |  | Kd [5]: 450 µM; Kd [6]: 4580 µM
ACSADDWLGCISYCA (linker 2-10-14 via TATB) [BCY15471] |  |  | 0.434 µM | 0.434 µM | Kd [5]: 263 µM; Kd [6]: 4660 µM; Ki [8]: 4.66 µM
ACSPDAHLGCISYCEHQE (linker 2-10-14 via TATB (inferred)) [BCY17119] | 5.65 µM | 0.212 µM | 0.16 µM | 0.16 µM | 
ACSPDAHLGCISYCPHP-NH2 (linker 2-10-14 via TATB (inferred)) [BCY17115] | 1.24 µM | 0.06 µM | 0.03 µM | 0.03 µM | 
HTSCSPDAHLGCISYCA (linker 4-12-16 via TATB) [BCY17111] | 0.907 µM | 0.0083 µM | 0.086 µM | 0.086 µM | 
HWMCSPDAHLGCISYCA (linker 4-12-16 via TATB) [BCY17110] | 0.232 µM | 0.015 µM | 0.022 µM | 0.022 µM | 
CPXDAYLGCXSYC (3 Cys on TATB; N-terminal acetyl (Ac); core as printed CP[HyP]DAYLGC[tBuGly]SYC) [BCY17991] | 0.035 µM | 0.0034 µM | 0.003 µM | 0.002 µM | 
ACPQDAYLGCISWCA (linker 2-10-14 via TATB) [BCY15467] |  |  |  | 0.133 µM | Kd [5]: 29.5 µM; Kd [6]: 1580 µM

Binder | Kd [3] | Kd [4] | Ki [7] | Ki [9] | further results
ACPPDAHLGCISYCA (3 Cys on TATB) [BCY16048] | 1.28 µM |  |  |  | Ki [8]: 0.621 µM
ACREFFDTCGLAFIECA-NH2 (linker 2-9-16 via TATA; N-terminus assumed; SMILES CC[C@H](C)[C@@H]1NC(=O)[C@H](Cc2ccccc2)NC(=O)[C@H](C)NC(=O)[C@H](CC(C)C)NC(=O)CNC(=O)[C@@H]2CSCCC(=O)N3CN(CN(C3)C(=O)CCSC[C@@H](C(=O)N[C@@H](C)C(N)=O)NC(=O)[C@H](CCC(=O)O)NC1=O)C(=O)CCSC[C@H](NC(=O)[C@H](C)N)C(=O)N[C@@H](CCCNC(=N)N)C(=O)N[C@@H](CCC(=O)O)C(=O)N[C@@H](Cc1ccccc1)C(=O)N[C@@H](Cc1ccccc1)C(=O)N[C@@H](CC(=O)O)C(=O)N[C@@H]([C@@H](C)O)C(=O)N2) [BCY12452] |  |  |  |  | IC50 [10]: 1.22 µM
ACLEACYDGVYWYSCA (3 Cys on TATA) [BCY12454] |  |  |  |  | IC50 [10]: 0.893 µM
IDSNCPNDAHLGCISYCA (linker 5-13-17 via TATB (inferred)) [BCY17118] | 1.96 µM | 0.12 µM | 0.07 µM | 0.07 µM | 
ACSPDAHLGC[Tle]SYCA (linker 2-10-14 via TATB) [BCY16051] | 1.82 µM | 0.025 µM | 0.066 µM | 0.066 µM | Ki [8]: 0.482 µM
ACPPDSWQGCISYCA (linker 2-10-14 via TATB) [BCY13989] | ~11 µM |  | 0.565 µM | 0.565 µM | Kd [5]: 376 µM; Kd [6]: 3440 µM; Ki [8]: 3.44 µM
WGKSCPIDAHLGCISYCA (linker 5-13-17 via TATB (inferred)) [BCY17116] | 0.474 µM | 0.001 µM | 0.075 µM | 0.075 µM | 
ACALCNDWTLPWHHCA (3 Cys on TATA) [BCY12455] |  |  |  |  | Kd [5]: 65.6 µM; Kd [6]: 42.4 µM; IC50 [10]: 0.673 µM
ACSSDAYLGCISWCA (3 Cys on TATB) [BCY13986] |  |  |  |  | Kd [5]: 132 µM; Kd [6]: 2590 µM
TYMNCPPDAHLGCISYCA (linker 5-13-17 via TATB (inferred)) [BCY17117] | 0.805 µM | 0.0042 µM | 0.037 µM | 0.037 µM | 
ACSSDAYLGCISWCA[Sar][Sar][Sar][Sar][Sar][Sar]K(Fluorescein) (linker 2-10-14 via TATB) [BCY14475] |  |  |  |  | Kd [1]: 2.62 µM
ESFCSPDAHLGCISYCA (linker 4-12-16 via TATB) [BCY17113] | 1.66 µM | 0.308 µM | 0.103 µM | 0.103 µM | 
ACALCNDWTLPWHHCA[Sar][Sar][Sar][Sar][Sar][Sar]K(Fluorescein) (linker 2-5-15 via TATA) [BCY12652] |  |  |  |  | Kd [1]: 0.098 µM
NWNCPXDAYLGCXSYC (3 Cys on TATB; N-terminal acetyl (Ac); core as printed CP[HyP]DAYLGC[tBuGly]SYC) [BCY17993] | 0.235 µM | 0.009 µM | 0.005 µM | 0.003 µM | 
ACPPDSWQGCISYCA[Sar][Sar][Sar][Sar][Sar][Sar]K(Fluorescein) (linker 2-10-14 via TATB) [BCY14476] |  |  |  |  | Kd [1]: 3.65 µM
